Data as given in patent US20140120555A1 (PIERRE FABRE MEDICAMENT, published 2014).
Residue numbers refer to the chain shown, from its start. In names and notes the source's numbering stands. Values belong to the binder of their own block, whether it stands above or below them.

What was measured:
[1] = molecular target: T1, Recombinant mouse FcγRIII [CD16], Ala31-Thr215 with C-terminal 10-His tag (mouse, UniProt P08508 31-215); experiment: SPR (Biacore X): m-FcγRIII injected over c515H7 Mab immobilized on a CM4 sensorchip; Langmuir model
T1 construct: Soluble form bought from R&D Systems; also called m-FcγRIII
T1 sequence: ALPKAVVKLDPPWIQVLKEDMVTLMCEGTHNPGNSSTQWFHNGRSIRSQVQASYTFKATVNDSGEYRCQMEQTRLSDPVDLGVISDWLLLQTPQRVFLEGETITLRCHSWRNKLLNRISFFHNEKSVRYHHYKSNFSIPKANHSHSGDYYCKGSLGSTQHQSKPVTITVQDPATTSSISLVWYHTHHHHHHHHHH
Experimental: (§1) 2017 RU of c515H7 Mab were immobilized using the amine coupling kit chemistry on the second flowcell (FC2) of a CM4 sensorchip. The first flowcell (FC1) activated by NHS and EDC mixture and des-activated by ethanolamine served as the reference surface to check and subtract the non specific interaction between the analyte (Fc gamma receptors) and the sensorchip matrix.
(§2) The kinetic experiments were carried out at 25° Celsius at a flow rate of 30 μl/min. The HBS-EP buffer was used either as the running buffer or for the preparation of analyte solutions. The analyte solutions were injected during 90 seconds (association phase) with a 90 seconds delay (dissociation phase). An injection of running buffer as analyte was used as a double reference. All the sensorgrams were corrected by this double reference sensorgram.
(§3) After each injection of the analyte, the sensorchip was regenerated by injection of 20 mM NaOH, 75 mM NaCl solution.

[2] = molecular target: T2, Recombinant human FcγRIIIA variant V [CD16a], Gln17-Gln208 with C-terminal 6-His tag (human, UniProt P08637 17-208); experiment: SPR (Biacore X): h-FcγRIIIA injected over c515H7 Mab immobilized on a CM4 sensorchip; Langmuir model
T2 construct: range 17-208; 'variant V' is given without a position, so no substitution is written; also called h-FcγRIIIA
T2 sequence (P08637 other isoform, or with tags, fused parts or gaps mutant limits assumed, form in doubt): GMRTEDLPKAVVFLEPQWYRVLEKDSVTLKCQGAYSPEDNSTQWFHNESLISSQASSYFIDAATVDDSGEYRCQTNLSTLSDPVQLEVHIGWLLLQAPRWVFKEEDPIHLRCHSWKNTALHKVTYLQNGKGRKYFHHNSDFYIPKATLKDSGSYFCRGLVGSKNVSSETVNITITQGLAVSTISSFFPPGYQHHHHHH
Experimental: as §1, §2, §3

[3] = molecular target: T1, Recombinant mouse FcγRIII [CD16], …; experiment: SPR (Biacore X): m-FcγRIII injected over c515H7 Mab immobilized on a CM4 sensorchip; heterogeneous ligand model, major component (99%)
Experimental: as §1, §2, §3

[4] = molecular target: T3, Recombinant human FcγRI [CD64], Gln16-Pro288 with C-terminal 6-His tag (human, UniProt P12314 16-288); experiment: SPR (Biacore X): h-FcγRI injected over c515H7 Mab immobilized on a CM4 sensorchip; heterogeneous ligand model, minor component (0%)
T3 construct: range 16-288; Soluble form bought from R&D Systems; also called h-FcγRI
T3 sequence (P12314 other isoform, or with tags, fused parts or gaps limits assumed): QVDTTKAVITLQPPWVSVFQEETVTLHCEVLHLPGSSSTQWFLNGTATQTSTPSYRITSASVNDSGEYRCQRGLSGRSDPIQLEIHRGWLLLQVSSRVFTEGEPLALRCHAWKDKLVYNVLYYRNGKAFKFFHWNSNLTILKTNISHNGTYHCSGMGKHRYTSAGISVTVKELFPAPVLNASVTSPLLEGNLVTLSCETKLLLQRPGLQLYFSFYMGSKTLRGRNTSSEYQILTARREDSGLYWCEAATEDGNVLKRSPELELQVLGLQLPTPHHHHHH
Experimental: as §1, §2, §3

[5] = molecular target: T4, Recombinant mouse FcγRI [CD64], Gln25-Pro297 with C-terminal 6-His tag (mouse, UniProt P26151 25-297); experiment: SPR (Biacore X), Mab on CM4 chip, m-FcγRI as analyte, heterogeneous ligand model, major component; major component (81%), lower value
T4 construct: range 25-297; Soluble form bought from R&D Systems; also called m-FcγRI
T4 sequence: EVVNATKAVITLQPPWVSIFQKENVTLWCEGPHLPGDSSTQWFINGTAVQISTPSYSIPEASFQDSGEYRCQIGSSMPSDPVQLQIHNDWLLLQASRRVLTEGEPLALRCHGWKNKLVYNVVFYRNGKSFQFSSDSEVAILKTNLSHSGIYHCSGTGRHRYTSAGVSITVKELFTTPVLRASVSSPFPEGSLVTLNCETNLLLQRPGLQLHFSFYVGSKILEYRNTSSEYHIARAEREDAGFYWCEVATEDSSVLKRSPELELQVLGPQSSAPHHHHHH
Experimental: as §1, §2
According to this model, the c515H7 Mab Fc domain may be regarded as a mixture of two components.

[6] = molecular target: T3, Recombinant human FcγRI [CD64], …; experiment: SPR (Biacore X): h-FcγRI injected over hz515H7VH1D76NVL2 Mab immobilized on a CM4 sensorchip; Langmuir model
Experimental: (§4) The experiments were carried out using a Biacore X device. The soluble forms of the four Fc […]gamma receptors used in this study were purchased from R&D Systems: […]

[7] = molecular target: T2, Recombinant human FcγRIIIA variant V …; experiment: SPR (Biacore X): h-FcγRIIIA injected over hz515H7VH1D76NVL2 Mab immobilized on a CM4 sensorchip; Langmuir model
Experimental: as §1, with “1964” for “2017”, “hz515H7VH1D76NVL2” for “c515H7”
as §2
After each injection of the analyte, the sensorchip was regenerated by injection of either 20 mM NaOH solution after h-FcγRI and m-FcγRIII or 10 mM NaOH after h-FcγRIIIA and m-FcγRI.

[8] = molecular target: T3, Recombinant human FcγRI [CD64], …; experiment: SPR (Biacore X): h-FcγRI injected over hz515H7VH1D76NVL2 Mab immobilized on a CM4 sensorchip; heterogeneous ligand model, minor component (1%)
Experimental: as §4

[9] = molecular target: T1, Recombinant mouse FcγRIII [CD16], …; experiment: SPR (Biacore X): m-FcγRIII injected over hz515H7VH1D76NVL2 Mab immobilized on a CM4 sensorchip; heterogeneous ligand model, major component (66%)

Kd [1]: 20.9 nM
koff [1]: 0.00442 s⁻¹
kon [1]: 211000 M⁻¹ s⁻¹
Kd [2]: 63.8 nM
koff [2]: 0.0263 s⁻¹
kon [2]: 412000 M⁻¹ s⁻¹
Kd [3]: 20.9 nM
koff [3]: 0.00446 s⁻¹
kon [3]: 213000 M⁻¹ s⁻¹
Kd [4]: 0.06 nM
koff [4]: 7.3e-05 s⁻¹
kon [4]: 1.14e+06 M⁻¹ s⁻¹
Kd [5]: ~380 nM
B1: chimeric antibody c515H7 (antibody, human IgG1, kappa)
heavy: not shown
light: DIVMSQSPSSLAVSAGEKVTMSCKSSQSLFNSRTRKNYLAWYQQKPGQSPKLLIYWASARDSGVPARFTGSGSETYFTLTISRVQAEDLAVYYCMQSFNLRTFGGGTKLEIKRTVAAPSVFIFPPSDEQLKSGTASVVCLLNNFYPREAKVQWKVDNALQSGNSQESVTEQDSKDSTYSLSSTLTLSKADYEKHKVYACEVTHQGLSSPVTKSFNRGEC
notes: Human IgG1/kappa constant domains; also called c515H7 Mab; chimeric 515H7

Kd [6]: 0.93 nM
koff [6]: 0.00054 s⁻¹
kon [6]: 578000 M⁻¹ s⁻¹
Kd [7]: 75.2 nM
koff [7]: 0.0351 s⁻¹
kon [7]: 467000 M⁻¹ s⁻¹
Kd [8]: 0.28 nM
koff [8]: 2e-05 s⁻¹
kon [8]: 72000 M⁻¹ s⁻¹
Kd [9]: 0.2 nM
koff [9]: 3.7e-05 s⁻¹
kon [9]: 178000 M⁻¹ s⁻¹
B2: humanized antibody Hz515H7 VH1 D76N VL2 (antibody, human IgG1, kappa)
heavy: not shown
light: B1 light with S5T, A15L, K18R, V19A, G105Q, L109V
notes: IgG1/kappa; also called hz515H7VL2; hz515H7-1
